Source: the DeepSol protein solubility set

Assay: soluble on expression in E. coli; label from the status in PepcDB or PDB records

| Sequence | soluble on expression in E. coli |
| --- | --- |
| MSLEMKTYIIEKLRETEAIYYIEILLAVESGSRAWGFASPDSDYDIRFIYRHSKDWYLTPWDKDETITFMTEDDLDGSGWDLNKTFHLLLKSNAALLSWFYSPIVYIENKSFTKLFKPLVDQCFSPIAVSFHYLSMSKKYLESCRNDEVKLKSYFYCLRTALSGKWITEKKTVPPVLFSDLLVLADSTIRTKIENLIALKATKGESYFHPNDWELFEFMERQISENEEKAKSLSGSKTDKAQMEKVFREIISEGHHHHHH | not soluble |
| GFKDYGHDYHPAPKTENIKGLGDLKPGIPKTPKQNGGGKRKRWTGDKGRKIYEWDSQHGELEGYRASDGQHLGSFDPKTGNQLKGPDPKRNIKKYL | soluble |
| MGSDKIHHHHHHVTSGQDKPWPPVSMGMARLTTMAFHGENMVPPAIELLKRSEADPTDSAALLDLSAIHFLLGHEEAGLAYQERALAQNQVYRDHSETASEDGVRLLAFAAPGNLMSNVPIQFLIENSDIRLDVLYVVPGLDLPERVPAHDMAMVIAGESEPNREVLERIAAFADLWPCPPVLNDPRKVLQLSRDGVSSLLSGVPGIRIPATTRVDPESLARLGRGEIALTDLLPDGSFPVIARPLDSHAGKGLAKLDDPSTIALYLAAQPAEGYYLSSFVDYRGAGGMFRKYRIALIDGKPFVCHMAVSAHWMIHYLNADMRESAEKRAEEAQAFATFDEDFAARHKDAFATMAERIGLDYFAMDCAETPDGDLLVFEADTAMIVHAMDPPDIFPYKAPQMRRIFKAFQDMLRRIKQDKQD | not soluble |
| MAHHHHHHMVATITFKLRSSNHVGIIEVPHRVISCREIKEAIAEKLSGSPDEIDIFVSGSSDYLHPNDELPAYTVVEVVRHVGTGRPPPKREREPVGPSNLSSAMSHAAVRAGNKNGDTATPLTEEERLAQLSEAVAVETGIDEVGAWRMRQMRNRSAAMGGGGREVTFRPPPPGYICHNCGKRGHLIQHCPAAKGVRGVKLLSLPTGIPETMLVECTMDDPAAKFVTRDGRLVKRKLDNASFVGIVTTSNADGVKPDFPSEGGNNRNDSPNSEKLETPDAGGDAAAKPQFLCAWDSVIVKNAMKAPCCGALFCETCLNERVEEAISRADASEIPLLCPGCEEPLDVPDVVEATEERKLVEALRSGKRARD | not soluble |
| SLQLRPSFLLSSLRPSLTGARRLVETIFLGSRPWMPGTPRRLPRLPQRYWQMRPLFLELLGNHAQCPYGVLLKTHCPLRAAVTPAAGVCAREKPQGSVAAPEEEDTDPRRLVQLLRQHSSPWQVYGFVRACLRRLVPPGLWGSRHNERRFLRNTKKFISLGKHAKLSLQELTWKMSVRDCAWLRRSPGVGCVPAAEHRLREEILAKFLHWLMSVYVVELLRSFFYVTETTFQKNRLFFYRKSVWSKLQSIGIRQHLKRVQLREEG | not soluble |
| MGSDKIHHHHHHKDEDPVLPLEGAKLSVAVKASGTATKAYNPNDVNELEGEAYINNLAVVVFNETGTELLGYKWEALSGAEHSAIIADVPTTKAVRARIIVLANVPRDLLSTVSTYDEFQTRLVDLSSQSQTNLTMSSQVIVTKSALSEEDNYLGYTDLGDQNVDGISDPILLTRVAARIDLVNISTRFAGTPFAGREVRIDAVGIYNMKTKSYYFSEADWGETEAPDAVRNSEDTSFEDLLVNDGTSISNTPFVHYVMENMKSDDHTMIAVKATLRGNSSYQDHTKIFTAVINAGGLQNGYDHNFIRRNYVYRLRIYFDGESFDNIPVTPDPGPGPDPEPEVDTNLNIAVQVVGWGPVMQHPVID | not soluble |
| MNYYMHHIGDYKSDASYLSLQEHGIYFLLLSHYYATEKPIPADKTHTYRIAYARTKKEKSAVDFVLDTFFSLQEDGWHNKRCDEEIAAYKEGDAWHEHKEANKNGQNTRTRRHRKERSRLFAELKDHQVTPEWNMPIKELRLLHKKTCHAPVTAVTPPVTPVTPVTPVTPVTPTQEESFTGPSSSLRSEERLIRAENETSIKELRQWNAKTNAKTGNAPVTAVTAKPLTINPLTIISSSLCSEESLVFAEDGNATGSTGKPKRSPHGSRLPDD | not soluble |
| MPDSSMKRGATLCLALAIGPGSTLADDSLGHRDNISTGLNQRQKAEMKVPPGFVEGSTLNGFIRNYYFARDNHDTPSRRDQREWAQGLMLSFRSGYTDTPIGIGLDAHAFYGLRLDGGGGSGGAGVLPLDSAGRPADSFSAAGAALKLRGLDSLLKIGDQLLENPVIASGVSRMVPQSYRGVTLKNYHFRALELDAGFVEATRLRNQSGHSHLTSGYGNGTKGGIAADRESPHIAWLGASYSAPGGSQATLYSGRLEDIWNQHYLGLSQPWRLSSQLTLTPWLHYYKTRDQGRSQLGRIDNDLYNAGLTLAGGGQSLSLSLQKVDGDTPFDFIAQNDRTFLYESNAMQYADFNGPGERSWKIQYQASLAFLAAPDWQFGAAYGRGQADLTRVDPDSAGYGYLYNPNGKNAQHWERDLSLRYAFPAGPAKGLSVTLRWATHRPGEGYTAPGNTRGNSSSDEYRVVVDYPIRLL | not soluble |
| MSLKVLAITGYKPFELGIFKQDDKALYYIKKAIKNRLIAFLDEGLEWILISGQLGVELWAAEAAYDLQEEYPDLKVAVITPFYEQEKNWKEPNKEQYEAVLAQADYEASLTHRPYESPLQFKQKNQFFIDKSDGLLLLYDPEKEGSPKYMLGTAEKRREQDGYPIYFITMDDLRVTVEEDSYEGHHHHHH | soluble |
| MSLNAQNAGINFLHGTTWAEAVAKAKAENKLIFIDFYTQWCGPCMNMAQTVFSLPTVGYYYNQTFINLKIDAEEGEGITLAKKYGVRSYPTYAFVDPATEEIVHRSSSRQTPEQFIQTGKDANIPTKRSFYLQEQYTKGNRERAFLIDYINYHYSVYARNNVQAAFDELIKGGAKLTDPDVWEVYVNTINGMNPYLKQVSDNYADFCQRFGKKAVDAKLAKETSYGELAEIEALCNYEGKDFNLKMIRINNDIREQKYEAAATQIDAMIADTTVNQQELISRLKFIARLGYKAEELPEFWFNKCVGYLQYIAYNQTDRDDAFIHQEYAAALEMVLRKLNGKAPIPACLSTEPAYGKKVYNMRPDALKMKPKREGHHHHHH | soluble |
| MSLKLLVLIDGSKWSQKAALHAFSIAKRKNAKVILFSVLDRREAKALAFHLSMRSDSLGKIKEFEETIWRETKKSVKEVITTLLELGRREGINCSFKIVEGSAKEEIIKEANSGKYSMVIMGAYGRSGKTRIGSLLEEVVGQIRIPVMIVREGHHHHHH | soluble |
| MGSDKIHHHHHHMQRLMNNIMKVENFLAQKSINYDKIDRFLMFRMYEKYKKYFKNIPIIQLIGTNGKGSTGRYLTQLLENLNYKIGHYTSPHIFSFNERFYLDGKIANDEELEQAHIRLEEIFKQDLQKLSYFEYATFLAMILFQKCDFIVLEAGVGGEYDATSIFERRMSIFTRIGFDHIQILGNSLEDIARTKLKVMAPIALISDEQEQNVLNLAKKIAFLKKANLQVSSLNPFLKEKFEIYCKKFVLPYFLKHNLKLALKACEILTSQEKTLEALKKLQELNLQGRCQEISPNFFVDVGHNPMAAKAMLDKFQGEKINLIYNAYLDKDIFQILNTLKPIIDTIQIYKYKSAERKLADDEIYSIASKLGMQCKEFVKLEENKKNLVFGSFMLVENFLKEWCGKK | not soluble |
| MGSDKIHHHHHHDSLTESSSNTFWQTPDDALMALASCYDALQSNQLYNSDQYSLGPLYMDCISDNGGHFNWSGWMEGYDMAMGIHTPSSSIIGSYWKDCYEVISRCNVLIANIDRVDMDASQKAIYQAEAKTIRALMYINLTMTYQDVPFLTAPLTIDEAECEKTDRAAIVAHVMTDLQDAAEVLPQNASSRGHITKGAALSLLGRVALYNEKWDDAIAAYKQVQGLGYSLDPSYAKLFTQSGETSPEIIFAVRYEGPGMSEGAAFNAHWNTPLEAMNGTIDLADAYYCKDGKPTTDTKIAELNGGGGLDVSKPNPAHFENRDPRLYSTLFVPGMLWNGKGGIDTSASNPYANVYGGAAASLSTVYVYKYFDPTDTSNSWDNGQDFYVVRYAEVLLSLAEAMVQKGGYVYSDVTALVNEVRQRADVNMPTVEEVEGTSLSKDELLEVIKHERRVELAFEGLRLFDLYRWKELDKAVANIENERTMYGLAYEARKFNGERDYVWPLPTAELDTNKKLVQHDLWK | not soluble |
| MIDDLLNFFNSFNVVKNYKLINQLKNEVDTLKSRLDIPRELLDGFYADRNSREYREVYEKDAPLVTVCIGTYNRGKLLVERSVRSVLEQSYGNIELIVVGDCCTDDTPRLVQGITDPRFRFINLPERGNYPENPLHRWCVAGTVPFNYALSQARGDFITHLDDDDEFVPDRIEKLVKFIQREKADLVWHPFWYERSNGRWAMRKAQEFSGGKVTTSSIFYHRWFTAVPWDIEAYRYQEPGDWNRLRKIKYLGARVARYPEPLLRHYCERNQESLSSRTIQTRNTKLEHHHHHH | not soluble |
| MDTKHPPDPSGPSDPNINLGEFEDPVDGYADDDLLTPDDLSVSVTGMTPSRSFLETEEFETELGGVEPFEDLFNDISAHEIIQVIADGDRVGRPIVVVYAYRLPSSKEIDHARLLQYLVQIIDKIVDQDYTIVYFHYGLRSHNKPPVRWLFQAYKQLDRRFKKNLKALYVVHPTRFIRIIFSLFKGFISSKFENKFHYVMCIDELENALSVARLNLPSPIRDHDKSFSTQSNRPETPPAQPLPTQQFGVPLEFILSHCGGNIPPIVDQLIEYLEAHALTMEGVFRKSANIGSIKRLQDRINKGEKIDFENDPEYKDNEYVASLHASVLLKTFFRSLGEPLTTNRLYPKLAALSEVSKTEKSAAVKEFVKLLPRENYILLKTVIKFLTRVAENSKVNLMTANNLSVVFGPNLTWPTDQEVPISQLNNLNNFCYKLIVDYDSVFDH | not soluble |
| MDLKFKSQETGRSIGFASHLRRHGATLANHLNYTRNEFISTLADCHQNLGIEGRASSPEKQFDEDGDEIEATATKIEWQPLKCPKCHRNSENTRKLLEHLVEDHGRPQDKAWFEQFDTIGTDLKKVFDKAIRIQAENSVVKKKFQNSNDLLVCPTDSPLAPFLLMRHLQVNFQEVSQTLTEGIVLKLQIASTSYTIIFSFHKVDKARRRIKREMARKSLERRLRVLELRCARTWVPDDDVVFKKKRTSEENKALIQALKLPATSSHDDIVLKINEMKTQHDEMVK | not soluble |
| MALGGGTFVTQNKILPGSYINFISAKRATSSLSDRGIVAIPLELDWGIDEDVFQVTSDDFEKYSVKYFGYDYTHEKLKGLRDLFKNIRLGYFYKLNKGVKASCTIATAKYSGIRGNDLKVTVTTNIDDNAKFDVVTLLDNKKVDTQIAKVITDLQDNDYITWKKDATLEASAGLVFTGGTNGEAVTGAEYQAFLDKIESYSFNALGCLATTTEIKSLFVEFTKRMRDKVGAKFQTVLYKKSDADYEGVVSVENKIKEIGLVESSLIYWAAGAIAGCDINKSNTNKKYDGEFDVDVNYTQIQLEEALKTGKFIFHKVGDEVHVLEDINTFVSFTDDKNDDFSSNQSVRVLDQIANDIATLFNEKYLGKVPNDKAGRISFWNDVVKHHKELENIRAIEDFKTDDVSVELGNDKKTVIVSDAVKVINAMSKLYMTVSVNLEHHHHHH | soluble |
| MLQLFSFLAIFYISLSNCDPQILRLKSIPSPIPNVEEGAKLYLASNDDNGLLKNIQVQTAGGSFTLDQINVNTANGNAKSIVIDGGLVISTSNSNADTSGLTGFLYLTTKKQADDPAFSVYVIKQAQTVSTTQPNSTVVILNTELDNDAFFDHIEPLQIGLDYWYFTASEPMSMTMESKYVSDLVYTTTSVNTTGLVVNDFLFQEHVVKFQLDLTRVRTIGTLVSAIPIASQINVIFNQGGGISAQR | not soluble |
